Laboratory results taken from article PMC8897262 (Journal of molecular biology, 2021).

How the values were obtained:
[1] = target: T1, CD99 peptide containing the 10A1 epitope, Ac-GENDDPRPPNPPKPM-amide (human); test: crystal structure
T1 chain: Ac-GENDDPRPPNPPKPM-NH2

[2] = target: T2, CD99, endogenously expressed on T-ALL cells (Jurkat, KOPT-K1) (human (endogenous in Jurkat and KOPT-K1)) (UniProt P14209)
T2 sequence (chain, O-linked glycosylation): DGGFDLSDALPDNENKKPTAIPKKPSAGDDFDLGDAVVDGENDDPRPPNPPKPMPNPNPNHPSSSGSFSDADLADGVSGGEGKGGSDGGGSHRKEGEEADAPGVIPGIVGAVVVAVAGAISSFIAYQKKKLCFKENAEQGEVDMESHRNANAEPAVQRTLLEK

B1: 10A1 Fab (Fab, V domains shown)
VH: QVQLQQSGPVLVKPSQTLSLTCAISGDSISSDTTAWSWIRRSPSRGLEWLGWTYYRSKWFNYYAVSVKGRVTINPDTSKNQFSLQLSSVTPEDTAVYYCARGNGNGGMDVWGQGTTVTVSS
VL: SYVLTQPASASVSPGQTARITCSGDALPKQYAYWYQQKPGQAPVLVIFKDSERPSGVPERFSGSSSGTTVTLTISGAQAEDEADYYCQSVDNSGFYQVFGGGTQLTVL
- binding result [1]: binds
- IC50 (nM Fv) of cytotoxicity, Annexin V staining of KOPT-K1 cells after 18 h [2]: > 2000 nM Fv
